According to US20240209099A1:
Where two headings read alike, the source gives them in different places.

Columns and labels:
[1] = target: Recombinant Human VEGFR2/KDR Protein, His tag (hVEGFR2-his) (human) (UniProt P35968); test: ELISA, human VEGFR2-his coated, anti-human Fc-HRP
[2] = target: human VEGFR2 on HUVEC cells (human) (UniProt P35968); test: flow cytometry on HUVEC cells, MFI, anti-human IgG (H+L)-PE
[3] = target: Recombinant Rhesus macaque VEGFR2/KDR Protein, His tag (rhesus macaque); test: competition ELISA: VEGF-A coated (0.25 ug/ml), antibody titrated together with 1 ug/ml rhesus VEGFR2, detection with mouse anti-VEGFR2 serum and anti-mouse Fc-HRP; blocked ligand VEGF-A
[4] = target: Recombinant Human VEGFR2/KDR Protein, His tag (hVEGFR2-his) (human) (UniProt P35968); test: ELISA, hVEGFR2-his coated (0.5 ug/ml), anti-human Fc-HRP
[5] = target: Recombinant Human VEGFR2/KDR Protein, His tag (hVEGFR2-his) (human) (UniProt P35968); test: competition ELISA: VEGF-A coated (0.25 ug/ml), antibody mixed with VEGFR2, detection with mouse anti-VEGFR2 serum and anti-mouse Fc-HRP; blocked ligand VEGF-A
[6] = target: Recombinant Rhesus macaque VEGFR2/KDR Protein, His tag (rhesus macaque); test: ELISA, rhesus VEGFR2-his coated, anti-human Fc-HRP
[7] = target: human VEGFR2 on HUVEC cells (human) (UniProt P35968); test: flow cytometry on HUVEC cells, percent shifted cells (Shift %), anti-human IgG-PE
[8] = target: Recombinant Rhesus macaque VEGFR2/KDR Protein, His tag (rhesus macaque); test: ELISA, rhesus VEGFR2-his coated, anti-human Fc-HRP; remark: listed apart in the source
[9] = target: Recombinant Human VEGFR2/KDR Protein, His tag (hVEGFR2-his) (human) (UniProt P35968); test: competition ELISA: VEGF-A coated (0.25 ug/ml), antibody titrated together with 1 ug/ml human VEGFR2, detection with mouse anti-VEGFR2 serum and anti-mouse Fc-HRP; blocked ligand VEGF-A
[10] = target: Recombinant Human VEGFR2/KDR Protein, His tag (hVEGFR2-his) (human) (UniProt P35968); test: competition ELISA: hVEGFR2-his coated (1 ug/ml), antibody titrated, then 0.3 ug/ml hVEGF-A added and bound VEGF-A detected; blocked ligand hVEGF-A

Sequence of Recombinant Rhesus macaque VEGFR2/KDR Protein, His tag (rhesus macaque) (chain, as listed by the source): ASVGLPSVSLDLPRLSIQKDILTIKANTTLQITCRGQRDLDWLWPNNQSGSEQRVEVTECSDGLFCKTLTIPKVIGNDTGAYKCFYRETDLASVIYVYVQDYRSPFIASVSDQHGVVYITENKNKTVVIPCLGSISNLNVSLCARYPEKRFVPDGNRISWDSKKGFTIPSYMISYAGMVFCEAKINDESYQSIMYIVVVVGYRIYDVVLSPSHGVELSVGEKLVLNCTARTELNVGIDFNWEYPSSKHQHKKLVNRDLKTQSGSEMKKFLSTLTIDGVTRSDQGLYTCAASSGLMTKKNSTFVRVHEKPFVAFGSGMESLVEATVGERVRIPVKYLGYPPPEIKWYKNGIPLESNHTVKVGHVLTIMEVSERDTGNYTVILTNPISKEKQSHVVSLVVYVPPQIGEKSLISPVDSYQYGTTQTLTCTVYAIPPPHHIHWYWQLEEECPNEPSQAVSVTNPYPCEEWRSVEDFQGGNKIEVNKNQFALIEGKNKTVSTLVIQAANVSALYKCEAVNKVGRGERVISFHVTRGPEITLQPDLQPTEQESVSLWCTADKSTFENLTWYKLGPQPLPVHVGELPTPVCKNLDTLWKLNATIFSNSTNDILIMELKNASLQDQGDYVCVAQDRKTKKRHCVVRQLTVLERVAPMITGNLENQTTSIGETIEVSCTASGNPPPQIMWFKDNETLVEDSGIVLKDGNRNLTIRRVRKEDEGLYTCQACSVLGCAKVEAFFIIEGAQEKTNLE
Sequence of Recombinant Human VEGFR2/KDR Protein, His tag (hVEGFR2-his) (human) (P35968 other isoform, or with tags, fused parts or gaps): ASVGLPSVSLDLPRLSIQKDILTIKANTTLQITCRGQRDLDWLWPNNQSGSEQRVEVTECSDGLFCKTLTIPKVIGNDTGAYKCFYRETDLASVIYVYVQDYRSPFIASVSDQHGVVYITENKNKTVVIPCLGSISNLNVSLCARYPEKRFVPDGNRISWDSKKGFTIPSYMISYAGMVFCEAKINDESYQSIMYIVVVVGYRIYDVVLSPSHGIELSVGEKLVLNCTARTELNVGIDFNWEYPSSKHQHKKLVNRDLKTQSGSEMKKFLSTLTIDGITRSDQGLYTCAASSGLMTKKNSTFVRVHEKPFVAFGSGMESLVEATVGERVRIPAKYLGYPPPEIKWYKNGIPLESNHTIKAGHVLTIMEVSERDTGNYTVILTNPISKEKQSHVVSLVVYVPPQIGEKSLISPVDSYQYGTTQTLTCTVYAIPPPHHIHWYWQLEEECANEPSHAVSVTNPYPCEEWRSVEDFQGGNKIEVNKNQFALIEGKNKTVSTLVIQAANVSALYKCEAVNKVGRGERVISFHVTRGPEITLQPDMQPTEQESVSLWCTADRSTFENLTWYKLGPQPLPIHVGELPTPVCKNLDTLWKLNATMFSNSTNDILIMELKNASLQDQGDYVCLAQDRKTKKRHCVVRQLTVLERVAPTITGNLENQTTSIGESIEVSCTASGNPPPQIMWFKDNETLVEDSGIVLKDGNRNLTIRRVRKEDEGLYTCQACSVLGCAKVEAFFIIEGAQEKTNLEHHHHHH
Sequence of human VEGFR2 on HUVEC cells (human) (P35968 20-1356 V297I/Q472H limits assumed): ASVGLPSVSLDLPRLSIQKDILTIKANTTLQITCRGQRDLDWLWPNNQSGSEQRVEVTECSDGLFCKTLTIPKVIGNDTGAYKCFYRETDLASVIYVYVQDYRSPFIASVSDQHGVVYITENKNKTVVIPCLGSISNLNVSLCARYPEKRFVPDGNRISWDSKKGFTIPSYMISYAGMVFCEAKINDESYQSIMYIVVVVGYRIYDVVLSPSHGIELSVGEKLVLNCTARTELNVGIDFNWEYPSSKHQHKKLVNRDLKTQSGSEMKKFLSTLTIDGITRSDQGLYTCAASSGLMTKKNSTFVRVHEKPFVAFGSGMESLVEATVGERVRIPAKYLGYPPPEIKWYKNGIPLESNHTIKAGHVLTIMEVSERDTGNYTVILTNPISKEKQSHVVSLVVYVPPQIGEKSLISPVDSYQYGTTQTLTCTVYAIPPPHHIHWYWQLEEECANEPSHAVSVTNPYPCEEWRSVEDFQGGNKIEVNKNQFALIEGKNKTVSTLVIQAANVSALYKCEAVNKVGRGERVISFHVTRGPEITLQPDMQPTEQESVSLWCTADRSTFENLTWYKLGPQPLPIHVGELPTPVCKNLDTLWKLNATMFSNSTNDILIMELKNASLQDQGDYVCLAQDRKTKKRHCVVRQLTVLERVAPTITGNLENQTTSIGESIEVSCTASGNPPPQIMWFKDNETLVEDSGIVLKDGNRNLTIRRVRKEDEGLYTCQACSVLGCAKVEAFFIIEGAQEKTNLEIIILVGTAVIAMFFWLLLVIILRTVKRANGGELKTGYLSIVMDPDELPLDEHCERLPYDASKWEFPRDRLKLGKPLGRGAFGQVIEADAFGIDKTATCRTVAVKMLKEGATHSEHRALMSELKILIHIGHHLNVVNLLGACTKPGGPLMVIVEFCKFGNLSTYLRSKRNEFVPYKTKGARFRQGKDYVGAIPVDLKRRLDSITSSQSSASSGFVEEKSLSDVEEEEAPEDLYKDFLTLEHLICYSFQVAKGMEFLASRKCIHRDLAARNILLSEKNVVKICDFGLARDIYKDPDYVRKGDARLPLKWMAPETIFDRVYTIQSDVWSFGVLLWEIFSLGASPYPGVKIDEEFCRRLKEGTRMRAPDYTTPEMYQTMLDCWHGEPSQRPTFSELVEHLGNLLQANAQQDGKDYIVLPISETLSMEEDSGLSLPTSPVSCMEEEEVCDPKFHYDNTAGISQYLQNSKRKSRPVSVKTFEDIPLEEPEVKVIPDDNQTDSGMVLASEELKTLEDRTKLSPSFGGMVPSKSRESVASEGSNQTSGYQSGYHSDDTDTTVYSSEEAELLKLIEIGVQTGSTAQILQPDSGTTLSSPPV

1121B (benchmark antibody, Ramucirumab)
EC50 [1]: 0.00871 µg/mL | EC50 (read off the curve) [2]: 0.1 µg/mL | IC50 [3]: 0.805 µg/mL | EC50 [4]: 0.00926 µg/mL | IC50 [5]: 0.126 µg/mL | EC50 [6]: 0.0088 µg/mL | EC50 [7]: 0.0682 µg/mL | EC50 [8]: 0.00919 µg/mL | IC50 [9]: 0.849 µg/mL | IC50 [10]: 0.0285 µg/mL
